Results as given in the supplement of paper PMC9233669.
This sample holds only a part of the variants without activity.

These sequences were tested on biotinyl-Phe-oxazolone (assay: self-aminoacylation, catalytic enhancement (BFO) (fold over background); higher = more active; k-Seq, kA / k0A0; sequences stand for … in GGGAAUGGAUCCACAUCUACGAAUUC…UUCACUGCAGACUUGACGAAGCUG).
Outline: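 Mutagenized RNA pools with a 21-nt variable region (0.43 μM) reacted with each biotinyl-aminoacyl-oxazolone at 2–1250 μM. Reactions ran in 50 μL HEPES/NaCl/KCl/MgCl2/CaCl2 buffer with 5% acetonitrile, pH 6.9–7.0, for 90 minutes at room temperature. Streptavidin-captured RNA was quantified by triplicate qPCR and Illumina sequencing, and per-sequence fraction reacted was fit to a pseudo-first-order model with 1000 bootstraps. Catalytic enhancement is median kA divided by the uncatalyzed rate, the low-activity peak of a bimodal Gaussian fit.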

Sequence | self-aminoacylation
AAGCUUGCUAAUAGUCUCAAG [Fam3.1 aminoacylation ribozyme variant] | 2.19
AAGGUUGCUGAUAGUCGCAAG [Fam3.1 aminoacylation ribozyme variant] | 2.05
AAGUAGGCUAAUAGUCGCAAG [Fam3.1 aminoacylation ribozyme variant] | 3.24
AAGUCUGCUAAGAGUCGCAAG [Fam3.1 aminoacylation ribozyme variant] | 4.79
AAGUCUGCUAUUAGUCGCAAG [Fam3.1 aminoacylation ribozyme variant] | 4.82
AAGUUAGCUAAGAGUCGCAAG [Fam3.1 aminoacylation ribozyme variant] | 2.38
AAGUUAGCUAAUAGUCGAAAG [Fam3.1 aminoacylation ribozyme variant] | 3.83
AAGUUAGCUGAUAGUCGCAAG [Fam3.1 aminoacylation ribozyme variant] | 2.26
AAGUUCGCUGAUAGUCGCAAG [Fam3.1 aminoacylation ribozyme variant] | 5.75
AAGUUGUCUAAUAGUCGCAAG [Fam3.1 aminoacylation ribozyme variant] | 2.35
AAGUUUACCAAUAGUCGCAAG [Fam3.1 aminoacylation ribozyme variant] | 2.58
AAGUUUACUAAUAGCCGCAAG [Fam3.1 aminoacylation ribozyme variant] | 2.1
AAGUUUACUAAUAGGCGCAAG [Fam3.1 aminoacylation ribozyme variant] | 2.02
AAGUUUGCGAAUAGUGGCAAG [Fam3.1 aminoacylation ribozyme variant] | 2.12
AAGUUUGCUAAUAGUAGCAAA [Fam3.1 aminoacylation ribozyme variant] | 2.93
AAGUUUGCUAAUCGUCGCAAG [Fam3.1 aminoacylation ribozyme variant] | 3.12
AAGUUUGCUAAUGGUCGCACG [Fam3.1 aminoacylation ribozyme variant] | 2.96

Sequence | self-aminoacylation
AAGUUUGCUCAUCGUCGCAAG [Fam3.1 aminoacylation ribozyme variant] | 3.33
AAGUUUGCUUAUAGUCGCAGG [Fam3.1 aminoacylation ribozyme variant] | 2.26
AAGUUUGUUAAUAGUCGCAAG [Fam3.1 aminoacylation ribozyme variant] | 2.01
AAGUUUUCUAAUAGUCGCAAC [Fam3.1 aminoacylation ribozyme variant] | 2.43
AAGUUUUCUAAUUGUCGCAAG [Fam3.1 aminoacylation ribozyme variant] | 2.33
AAGUUUUCUUAUAGUCGCAAG [Fam3.1 aminoacylation ribozyme variant] | 3.91
AAUUUUGCUAAGAGUCGCAAG [Fam3.1 aminoacylation ribozyme variant] | 2.23
AAUUUUGCUAAUAGUCGCCAG [Fam3.1 aminoacylation ribozyme variant] | 2.69
ACGUUUGCUAAUGGUCGCAAG [Fam3.1 aminoacylation ribozyme variant] | 3.94
AGGUUUGCUAAUAGUCGCAUG [Fam3.1 aminoacylation ribozyme variant] | 3.56
AUACGUCAAACAAUCGGUCUG [Fam1A.1 aminoacylation ribozyme variant] | 5.56
AUCCACCUAGGUCAUCGUGUG [Fam2.2 aminoacylation ribozyme variant] | 3.96
AUUACCCGGGUCGUCGAGUGA [Fam2.1 aminoacylation ribozyme variant] | 3.86
AUUACCCUGGGCAUCGUGUGA [Fam2.1 aminoacylation ribozyme variant] | 7.88
AUUACCCUGGUCAACGUGUGA [Fam2.1 aminoacylation ribozyme variant] | 4.08
AUUACCCUGGUCGUCGAGGGA [Fam2.1 aminoacylation ribozyme variant] | 6.85
